In patent publication US20260000597A1 (priority 2018, published 2026):

Biological target: AchR (Homo sapiens, UniProt P02708)
Experiment: ELISA of screened peptide phages on AchR versus streptavidin (OD450)
Assay type: binding
Conditions: absorbance at 450 nm, Spep-2 positive control
Summary of the method: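 Phage supernatants from 4th–5th round plaques, in 2% BSA, applied 1 h at 30 °C to wells coated with 5 μg/ml AchR or streptavidin. Bound phage detected with HRP anti-M13 and TMB at OD450; value given as AchR/streptavidin signal ratio.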

[1] = ELISA of selected 11-mer (L2) peptide phages on AchR
[2] = ELISA of selected 14-mer (L3) peptide phages on AchR

AchR, sequence (P02708 21-457): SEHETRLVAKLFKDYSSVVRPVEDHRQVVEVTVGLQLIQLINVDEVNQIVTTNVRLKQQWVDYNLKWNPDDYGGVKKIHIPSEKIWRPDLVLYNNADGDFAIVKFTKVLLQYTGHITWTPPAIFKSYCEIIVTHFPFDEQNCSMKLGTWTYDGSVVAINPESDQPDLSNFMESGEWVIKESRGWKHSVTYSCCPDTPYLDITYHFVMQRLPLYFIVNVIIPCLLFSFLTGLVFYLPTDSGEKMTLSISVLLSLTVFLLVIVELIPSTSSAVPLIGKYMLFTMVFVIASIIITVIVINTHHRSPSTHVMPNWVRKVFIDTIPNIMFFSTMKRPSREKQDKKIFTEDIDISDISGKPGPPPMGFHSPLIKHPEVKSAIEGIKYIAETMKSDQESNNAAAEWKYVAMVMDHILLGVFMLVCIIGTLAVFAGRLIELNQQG

| Substance | OD [1] | OD [2] |
| --- | --- | --- |
| L2-169 (HDPRHKKTPTK; AchR binding peptide) [Peptide L2-169] | 0.733 |  |
| L2-170 (QVHRNKRYTDR; AchR binding peptide) [Peptide L2-170] | 0.718 |  |
| L2-171 (YGTRPKKYVSK; AchR binding peptide) [Peptide L2-171] | 0.689 |  |
| L2-172 (CTWRGRRPHDK; AchR binding peptide) [Peptide L2-172] | 0.685 |  |
| L2-173 (SWAKARKLVHR; AchR binding peptide) [Peptide L2-173] | 0.705 |  |
| L2-174 (PLFKSRRAYVR; AchR binding peptide) [Peptide L2-174] | 0.693 |  |
| L2-175 (CVMRCRRSEDK; AchR binding peptide) [Peptide L2-175] | 0.65 |  |
| L2-176 (WWHKHRRAQSK; AchR binding peptide) [Peptide L2-176] | 0.574 |  |
| L2-177 (LNSKPRRVEFK; AchR binding peptide) [Peptide L2-177] | 0.768 |  |
| L2-178 (VPYRHRRMQFK; AchR binding peptide) [Peptide L2-178] | 0.718 |  |
| L2-179 (GIAKSKRNAGR; AchR binding peptide) [Peptide L2-179] | 0.716 |  |
| L2-180 (DPEKWRKFYDR; AchR binding peptide) [Peptide L2-180] | 0.744 |  |
| L2-181 (PGARCRKQDVK; AchR binding peptide) [Peptide L2-181] | 0.749 |  |
| L2-182 (HEQRPKKGQQK; AchR binding peptide) [Peptide L2-182] | 0.681 |  |
| L2-183 (TCDRARKESFR; AchR binding peptide) [Peptide L2-183] | 0.688 |  |
| L2-184 (MHQRERRNFVK; AchR binding peptide) [Peptide L2-184] | 0.736 |  |
| L2-185 (FITRFRKMGEK; AchR binding peptide) [Peptide L2-185] | 0.742 |  |
| L2-186 (PNWKVRRFGDK; AchR binding peptide) [Peptide L2-186] | 0.683 |  |
| L2-187 (TAAKWKKIIMK; AchR binding peptide) [Peptide L2-187] | 0.731 |  |
| L2-188 (CLWRLRKDNGR; AchR binding peptide) [Peptide L2-188] | 0.73 |  |
| L2-189 (AHIKSRKVWSR; AchR binding peptide) [Peptide L2-189] | 0.696 |  |
| L2-190 (NLVKSKKVEEK; AchR binding peptide) [Peptide L2-190] | 0.721 |  |

| Substance | OD [1] | OD [2] |
| --- | --- | --- |
| L2-191 (PDSRLKKHEAK; AchR binding peptide) [Peptide L2-191] | 0.689 |  |
| L2-192 (EHVKLKRLDFR; AchR binding peptide) [Peptide L2-192] | 0.685 |  |
| L2-193 (PALRMRRWCQK; AchR binding peptide) [Peptide L2-193] | 0.705 |  |
| L2-194 (HLEKHRRCEFK; AchR binding peptide) [Peptide L2-194] | 0.693 |  |
| L2-195 (CQAKTRKAEDR; AchR binding peptide) [Peptide L2-195] | 0.65 |  |
| L2-196 (QNMRMKRFIQR; AchR binding peptide) [Peptide L2-196] | 0.574 |  |
| L2-197 (CPYRIRRGPGK; AchR binding peptide) [Peptide L2-197] | 0.768 |  |
| L2-198 (DIYKGKRTLVK; AchR binding peptide) [Peptide L2-198] | 0.718 |  |
| L2-199 (EICKNRKPANR; AchR binding peptide) [Peptide L2-199] | 0.716 |  |
| L2-200 (QGMKLKRIWSK; AchR binding peptide) [Peptide L2-200] | 0.744 |  |
| L3-1 (ALGRTKRLHMRVHV; AchR binding peptide) [Peptide L3-1] |  | 0.853 |
| L3-2 (SFYKERKCQFRSGL; AchR binding peptide) [Peptide L3-2] |  | 0.841 |
| L3-3 (SGVRYRKWWIRSVV; AchR binding peptide) [Peptide L3-3] |  | 0.88 |
| L3-4 (MPQKLKKLDIRNHN; AchR binding peptide) [Peptide L3-4] |  | 0.905 |
| L3-5 (NEDRGKRPHIRVLG; AchR binding peptide) [Peptide L3-5] |  | 0.82 |
| L3-6 (EFVKLRKARLRGPQ; AchR binding peptide) [Peptide L3-6] |  | 0.77 |
| L3-7 (EGDKFRRHDIKYNF; AchR binding peptide) [Peptide L3-7] |  | 0.803 |
| L3-8 (PICRWKRAPFKWYF; AchR binding peptide) [Peptide L3-8] |  | 0.777 |
| L3-9 (NCNRFRRTIVRHCH; AchR binding peptide) [Peptide L3-9] |  | 0.725 |
| L3-10 (AHGKDRRYVEKLEV; AchR binding peptide) [Peptide L3-10] |  | 0.769 |
| L3-11 (FMQKCKKWWDRAVF; AchR binding peptide) [Peptide L3-11] |  | 0.8 |
| L3-12 (DPPKKRKSLLRRVS; AchR binding peptide) [Peptide L3-12] |  | 0.882 |

| Substance | OD [1] | OD [2] |
| --- | --- | --- |
| L3-13 (YCTRIRREGMKGSE; AchR binding peptide) [Peptide L3-13] |  | 0.862 |
| L3-14 (FPGKSKKQWHRLWP; AchR binding peptide) [Peptide L3-14] |  | 0.892 |
| L3-15 (YEPRFKRPYGKWCH; AchR binding peptide) [Peptide L3-15] |  | 0.859 |
| L3-16 (DYLRSRKMEERFQE; AchR binding peptide) [Peptide L3-16] |  | 0.797 |
| L3-17 (VGPKFRKNHRRQNR; AchR binding peptide) [Peptide L3-17] |  | 0.812 |
| L3-18 (EYQKCKKPSFRLTM; AchR binding peptide) [Peptide L3-18] |  | 0.806 |
| L3-19 (YMKKKRKSLLRTSL; AchR binding peptide) [Peptide L3-19] |  | 0.796 |
| L3-20 (CCFKLKKAYNKGPF; AchR binding peptide) [Peptide L3-20] |  | 0.755 |
| L3-21 (NPMKLRKAETKHNV; AchR binding peptide) [Peptide L3-21] |  | 0.843 |
| L3-22 (HSLKTRKSAFKSNT; AchR binding peptide) [Peptide L3-22] |  | 0.83 |
| L3-23 (QYHKVRKLWFRVEP; AchR binding peptide) [Peptide L3-23] |  | 0.799 |
| L3-24 (FVRKKRKSLLRDTR; AchR binding peptide) [Peptide L3-24] |  | 0.846 |
| L3-25 (CFQRKRKSLLRVLR; AchR binding peptide) [Peptide L3-25] |  | 0.807 |
| L3-26 (VPMKYRRCGNRQSN; AchR binding peptide) [Peptide L3-26] |  | 0.802 |
| L3-29 (CASKPRRTYLRAAN; AchR binding peptide) [Peptide L3-29] |  | 0.789 |
| L3-30 (WAHKCKKPGQRIPP; AchR binding peptide) [Peptide L3-30] |  | 0.771 |
| L3-31 (LSDKKRKSLLRYDY; AchR binding peptide) [Peptide L3-31] |  | 0.763 |
| L3-32 (CATRGKKVFSKRTM; AchR binding peptide) [Peptide L3-32] |  | 0.845 |
| L3-33 (LRQRSKRVLEKLRP; AchR binding peptide) [Peptide L3-33] |  | 0.751 |
| L3-34 (LGWKKRKSLLRRHV; AchR binding peptide) [Peptide L3-34] |  | 0.74 |
| L3-35 (LQCKYRRGSDKQPQ; AchR binding peptide) [Peptide L3-35] |  | 0.747 |
| L3-36 (AFSRIKRGVLKLLS; AchR binding peptide) [Peptide L3-36] |  | 0.787 |

| Substance | OD [1] | OD [2] |
| --- | --- | --- |
| L3-38 (TVVKSRKCSVRYNW; AchR binding peptide) [Peptide L3-38] |  | 0.669 |
| L3-39 (DDVKQRKKHPRVQT; AchR binding peptide) [Peptide L3-39] |  | 0.654 |
| L3-40 (ASPKGRRPTFRPQH; AchR binding peptide) [Peptide L3-40] |  | 0.733 |
| L3-41 (GWLKAKRFPSRPPT; AchR binding peptide) [Peptide L3-41] |  | 0.81 |
| L3-42 (ETNRTRKQCYKTTF; AchR binding peptide) [Peptide L3-42] |  | 0.71 |
| L3-43 (FTHKNRRDSLRVWM; AchR binding peptide) [Peptide L3-43] |  | 0.93 |
| L3-44 (PPFRLRKPLWRPQR; AchR binding peptide) [Peptide L3-44] |  | 0.719 |
| L3-45 (PGNRMKKYQNRVHG; AchR binding peptide) [Peptide L3-45] |  | 0.735 |
| L3-46 (SAHKKRKQTLRCSE; AchR binding peptide) [Peptide L3-46] |  | 0.618 |
| L3-47 (LYEKYKKHNNREDD; AchR binding peptide) [Peptide L3-47] |  | 0.558 |
| L3-48 (PHCRQKKFWIRCGT; AchR binding peptide) [Peptide L3-48] |  | 0.622 |
| L3-49 (VAFKTRRRVQRQSG; AchR binding peptide) [Peptide L3-49] |  | 0.629 |
| L3-50 (VFDKFRKTENRGVI; AchR binding peptide) [Peptide L3-50] |  | 0.634 |
| L3-51 (NHHKTKRCSVRFNI; AchR binding peptide) [Peptide L3-51] |  | 0.754 |
| L3-52 (GTFKWRKSGARQYL; AchR binding peptide) [Peptide L3-52] |  | 0.757 |
| L3-53 (HCLRTKKLINKICS; AchR binding peptide) [Peptide L3-53] |  | 0.679 |
| L3-54 (FFLRCRRLLGKVQV; AchR binding peptide) [Peptide L3-54] |  | 0.784 |
| L3-55 (HFPRARRFEHRCML; AchR binding peptide) [Peptide L3-55] |  | 0.706 |
| L3-56 (QISKLKRPSYRGDD; AchR binding peptide) [Peptide L3-56] |  | 0.703 |
